System: Bacillus subtilis
Assay: cleaved RNA product abundance (RNA/gDNA barcode ratio) relative to median wild-type variant (ratio to wild type); higher = more accumulation of the downstream cleavage product
Method in brief: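 Reporter mRNAs based on truncated aprE or tetM carried barcoded, mutagenized RNase Y cleavage-site windows built from oligos with a 9% error rate and were integrated into the B. subtilis chromosome. Cultures grew in LB at 37°C from OD600 0.0003 to 0.3. Cleaved RNA was gel-selected, reverse transcribed and barcode-sequenced together with genomic DNA barcodes, and UMIs were collapsed. Cleaved product abundance is the per-construct ratio of RNA to gDNA barcodes, scaled to the median of constructs carrying the unmutated site.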

[1] = experiment (reporter, strain, medium): exp 2b: truncated aprE reporter, strain BJT200, cleavage site: cggR-gapA (positions -7 to +36 mutated)
[2] = experiment (reporter, strain, medium): exp 4a: truncated aprE reporter, strain BJT201 with 2% xylose (RNase J1 expressed), cleavage site: cggR-gapA (positions -7 to +36 mutated)
[3] = experiment (reporter, strain, medium): exp 8a: truncated aprE reporter, strain BJT201 with 2% xylose (RNase J1 expressed), cleavage site: glnRA (positions -5 to +31 mutated)

Sequence	cleaved RNA product abundance [2]	cleaved RNA product abundance [3]	also measured
ACAGACGAAGGAGCCGCAAAGAAGTTATTAAGGGAAGAATAATGCCTCAATATAAATATCTCTCACTTATTTAAA	0.132	–	cleaved RNA product abundance [1]: 0.0918
CGACATGTCCCGCTTCTTTCATTAATCCGTTATCAACTGTTTAGCTATATACATTTACCTTTTAAGAGGAGGAAT	–	0.243	–
ACAGACGAAGGAGCCGCAAAGAAGTTATGAAGGCATGAATAATCCCTCAATATAAATATCTCTCACTTATTTAAA	0.116	–	cleaved RNA product abundance [1]: 0.108
CGACATGTCCCGCTTCTTTCATTAATCCGTTAGCAACTGTTTTGCCAGATACATTTACCTTTTAAGAGGAGGAAT	–	0.286	–
ACAGACGAAGGAGCCGCAAAGAAGTTATTAAGGGACGAATAATCCCTCCATATAAATATCTCTCACTTATTTAAA	0.255	–	–
ACAGACGAAGGAGCCGCAAAGAAGTTATTAAGGGATGAAAAATCCCTCAATATAAAAATCTCTCACTTATTTAAA	0.692	–	cleaved RNA product abundance [1]: 0.798
ACAGACGAAGGAGCCGCAAAGCAGTTATTAAGGGATGAATAATCCATCAATATAAATATCTCTCACTTATTTAAA	0.172	–	–
ACAGACGAAGGAGCCGCAAAGAAGTTATTAAGGGATCAATAATCCCTCATTATAAATATCTCTCACTTATTTAAA	0.213	–	–
ACAGACGAAGGAGCCGCAAATAAGTTATTAGGGGATGAATAATCCCTCAATATAAATATCTCTCACTTATTTAAA	–	–	cleaved RNA product abundance [1]: 0.603
ACAGACGAAGGAGCCGCAAGGAAGTTATTAAGGGATGAATAATCTCTCAATATAAATATCTCTCACTTATTTAAA	0.86	–	–
ACAGACGAAGGAGCCGCAAAGACGTTATTAAGGGATAAATAATCCCTCAATATAAATATCTCTCACTTATTTAAA	1.2	–	–
ACAGACGAAGGAGCCGCAAAGAAGTTATTAAGGGATGAATAATTCCTCAATATAAATATCTCTCACTTATTTAAA	0.616	–	cleaved RNA product abundance [1]: 0.506; cleaved RNA product abundance (experiment (reporter, strain, medium): exp 6: tetM reporter, strain 168, cleavage site: cggR-gapA (positions -7 to +36 mutated)): 0.494
ACAGACGAAGGAGCCGCAAAGAAGTTATTAAGGGATTAATAATCCCTCTATATAAATATCTCTCACTTATTTAAA	0.547	–	–
ACAGACGAAGGAGCCGCAAAGAAGTCATTAATGGATGAATAATCCCTCAATATAAATATCTCTCACTTATTTAAA	0.171	–	cleaved RNA product abundance [1]: 0.0927
CGACATGTCCCGCTTCTTTCATTAATTCGTTAGCAACTGTTTTGCTATATACATTTATCTTTTAAGAGGAGGAAT	–	1.4	–
CGACATGTCCCGCTTCTTTCATTAATCCGTTAACAACAGTTTTGCTATATACATTTACCTTTTAAGAGGAGGAAT	–	0.183	–
CGACATGTCCCGCTTCTTTCATTAATCCGTGAGCAACTGTTTAGCTATATACATTTACCTTTTAAGAGGAGGAAT	–	0.335	–
ACAGACGAAGGAGCCGCAAAGAAGTTATTAAGGGATGAATAATCCCACAATATATATATCTCTCACTTATTTAAA	0.303	–	–
CGACATGTCCCGCTTCTTTCATTAATCCGTTAACAACTGTTTTGCTATATAAATTTACCTTTTAAGAGGAGGAAT	–	0.227	–
CGACATGTCCCGCTTCTTTCATTATTCCGTTAGGAACTGTTTTGCTATATACATTTACCTTTTAAGAGGAGGAAT	–	0.44	–
ACAGACGAAGGAGCCGCAAAGAAGTTATTAAGGGATGAATAATTCCTGAATATAAATATCTCTCACTTATTTAAA	0.471	–	–

Sequence	cleaved RNA product abundance [2]	cleaved RNA product abundance [3]	also measured
ACAGACGAAGGAGCCGCAAAGAAGTTATTAATGGATGAATAATCCCTCAAAATAAATATCTCTCACTTATTTAAA	0.151	–	cleaved RNA product abundance [1]: 0.11
ACAGACGAAGGAGCCGCAAAGAAGTTATTAAGTGATGAATAATCCCTCAAAATAAATATCTCTCACTTATTTAAA	0.124	–	cleaved RNA product abundance [1]: 0.102
ACAGACGAAGGAGCCGCAAAGAAGTTATGAAGGGATGTATAATCCCTCAATATAAATATCTCTCACTTATTTAAA	0.311	–	–
ACAGACGAAGGAGCCGCAAAGAAGTTATTAAGGGATGAATAATGCCTCACTATAAATATCTCTCACTTATTTAAA	0.142	–	–
ACAGACGAAGGAGCCGCATAGAAGTTATTAAGGGATGAATAATCCCTGAATATAAATATCTCTCACTTATTTAAA	0.679	–	–
CGACATGTCCCGCTTCTTTCATTAATCCGTTAGCAAATGTTTTGCTTTATACATTTACCTTTTAAGAGGAGGAAT	–	0.298	–
CGACATGTCCCGCTTCTTTCATTAATCCGTTAACAACTGTTTTGGTATATACATATAGCTTTTAAGAGGAGGAAT	–	0.275	–
CGACATGTCCCGCTTCTTTCATTAATCCGTTAGCAACTGTTTTGCTATATACATTTTTCTTTTAAGAGGAGGAAT	–	0.479	–
ACAGACGAAGGAGCCGCAAAAAAGTTATTAAGGGATGAATAATCACTCAATATAAATATCTCTCACTTATTTAAA	0.12	–	cleaved RNA product abundance [1]: 0.108
CGACATGTCCCGCTTCTTTCATTAATCCGTTAGAAACTGTTTTGCTATTTACATTTACCTTTTAAGAGGAGGAAT	–	0.127	–
ACAGACGAAGGAGCCGCAAAGAAGTCATTAAGGGATGAATAATCCCTCAAAATAAATATCTCTCACTTATTTAAA	0.203	–	–
CGACATGTCCCGCTTCTTTCATTAATCCGTTAGCAATTGTTTTGCTATATACATTTACTTTTTAAGAGGAGGAAT	–	1.01	–
CGACATGTCCCGCTTCTTTCATTATTCCGTTAACAACTGTTTTGCTATATACATTTATCTTTTAAGAGGAGGAAT	–	0.27	–
ACAGACGAAGGAGCCGCAAATAAGTTATTAAGGCATGACTAATCCCTCAATATAAATATCTCTCACTTATTTAAA	0.144	–	–
ACAGACGAAGGAGCCGCAAAGAAGTTATTAAGGGAAGAATAATCCCTCAATATAAATAACTCTCACTTATTTAAA	0.434	–	–
CGACATGTCCCGCTTCTTTCATTAATCCGTTAGAAACTGTTTTGCTATAAACATTTACCTTTTAAGAGGAGGAAT	–	0.203	–
CGACATGTCCCGCTTCTTTCATTAATCCGTTAGCAACAGTTTTGCTATATACATTTAGCTTTTAAGAGGAGGAAT	–	0.489	–
ACAGACGAAGGAGCCGCAAAGAAATTATTAAGCGATGAATAATCACTCAATATAAATATCTCTCACTTATTTAAA	0.184	–	–
ACAGACGAAGGAGCCGCAAAGAAGTTATTAAGGAATGAATAATCCCTCAATATAAAAAACTCTCACTTATTTAAA	0.0884	–	–
ACAGACGAAGGAGCCGCAGAAAAGTTATTAAGGGATGAATAATCCCTCAATATAAATATCTCTCACTTATTTAAA	1.24	–	cleaved RNA product abundance [1]: 1.14
CGACATGTCCCGCTTCTTTCATTAATCCGTTTGCAACTGTTTAGCTATATACATTTACCTTTTAAGAGGAGGAAT	–	0.517	–

Sequence	cleaved RNA product abundance [2]	cleaved RNA product abundance [3]	also measured
ACAGACGAAGGAGCCGCAAAGAAGTTATTAAGGGATGAATAATCCCTCAAAAAAAATATCTCTCACTTATTTAAA	0.0713	–	–
ACAGACGAAGGAGCCGCACAGAAGTTATTAAGGGATGAATAATACCTCAATATAAATATCTCTCACTTATTTAAA	–	–	cleaved RNA product abundance [1]: 0.118
ACAGACGAAGGAGCCGCAAAGAAGTTATTAAGGGATGAATAATCCCAGAATATAAATATCTCTCACTTATTTAAA	0.361	–	–
ACAGACGAAGGAGCCGCTAAGAAGTTATTAAGGGATGAATAATCCCACAATATAAATATCTCTCACTTATTTAAA	0.252	–	–
ACAGACGAAGGAGCCGCAAAGAAGTTATTAAGGGATGAATAAACCCTCATTATAAATATCTCTCACTTATTTAAA	0.19	–	cleaved RNA product abundance [1]: 0.13
ACAGACGAAGGAGCCGCAAAGAAGTTACTAAGGGATGAATTATCCCTCAATATAAATATCTCTCACTTATTTAAA	0.25	–	cleaved RNA product abundance [1]: 0.199
CGACATGTCCCGCTTCTTTCATTAATCCGTTAGCAACTGTTTTGCTATCTACATTTACCTTTTAAGAGGAGGAAT	–	0.098	–
ACAGACGAAGGAGCCGCTAAGAAGTTATTAAGAGATGAATAATCCCTCAATATAAATATCTCTCACTTATTTAAA	0.135	–	cleaved RNA product abundance [1]: 0.126
ACAGACGAAGGAGCCGCAAAGAAGTTATTAAGGAATGAATACTCCCTCAATATAAATATCTCTCACTTATTTAAA	0.106	–	cleaved RNA product abundance [1]: 0.116
CGACATGTCCCGCTTCTTTCATTAATCCGTTAGCAACTGTTTTACTATATACATTTACCTTTTAAGAGGAGGAAT	–	0.619	–
ACAGACGAAGGAGCCGCAAAAAAGTTATTAAGGGATGAATAATCCCTCAATATAAATGTCTCTCACTTATTTAAA	0.309	–	cleaved RNA product abundance [1]: 0.243
CGACATGTCCCGCTTCTTTCATTAATCCGTTAGCTACTGTTTTGCTATATACATTTACCTTTTAAGAGGAGGAAT	–	0.56	–
ACAGACGAAGGAGCCGCAAAGAAGTTATTAAAGGATGAATAATCCCTCAATATAAATAGCTCTCACTTATTTAAA	0.176	–	–
CGACATGTCCCGCTTCTTTCATTATGCCGTTAGCAACTGTTTTGCTATATACATTTACCTTTTAAGAGGAGGAAT	–	1.32	–
ACAGACGAAGGAGCCGCAAAGAAGTAATTAAGGGACGAATAATCCCTCAATATAAATATCTCTCACTTATTTAAA	0.175	–	cleaved RNA product abundance [1]: 0.139
CGACATGTCCCGCTTCTTTCATTAATCCTTTACCAACTGTTTTGCTATATACATTTACCTTTTAAGAGGAGGAAT	–	0.125	–
CGACATGTCCCGCTTCTTTCATTAATCCGTTAGGAACTGTTTTGCTATAAACATTTACCTTTTAAGAGGAGGAAT	–	0.289	–
CGACATGTCCCGCTTCTTTCATTAATCCGTTAGCAAATGGTTTGCTATATACATTTACCTTTTAAGAGGAGGAAT	–	0.732	–
ACAGACGAAGGAGCCGCAAAGAAGTTGTTAAGGTATGAATAATCCCTCAATATAAATATCTCTCACTTATTTAAA	0.12	–	–

From the supplement of paper PMC11780869
